In FireProtDB (doi:10.1093/protein/15.10.817):

Details: Rattus norvegicus, pH 7, Thermal, CD, HEPES 10 mM, whole UniProt chain shown

B1: High mobility group protein B1 wild type, P63159 (protein)
chain: MGKGDPKKPRGKMSSYAFFVQTCREEHKKKHPDASVNFSEFSKKCSERWKTMSAKEKGKFEDMAKADKARYEREMKTYIPPKGETKKKFKDPNAPKRPPSAFFLFCSEYRPKIKGEHPGLSIGDVAKKLGEMWNNTAADDKQPYEKKAAKLKEKYEKDIAAYRAKGKPDAAKKGVVKAEKSKKKKEEEDDEEDEEDEEEEEEEEDEDEEEDDDDE
**Q.** What does the source list for B1?
**A.** unfolding free energy (20 °C, NiSO4 1 mM): 2.7 kcal/mol; Tm (NiSO4 1 mM): 40.6 °C; unfolding enthalpy (van 't Hoff) (NiSO4 1 mM): 35.7 kcal/mol; Tm: 40.6 °C; unfolding enthalpy (van 't Hoff): 35.7 kcal/mol
